± gives the standard deviation of the averaged measurements.
B1: library; a variant is named by its letters at N, in order (parent)
chain: GCUGUCACCGAGAAACUGUGAAGUAUAUCUUAAACCUGGGCACUUAAAAGAUAUAUGGAGUUAGUAGUGCAACCUGCUCGGUCUGAUGAGUCCNNNNNNGGACGAAACAGC

Columns and labels:
[1] = variants of: B1; test: normalized RNA/DNA level without ligand (relative to sTRSVctl = 100) (log10 (% of sTRSVctl)); HEK293T; ligand: cyclic di-GMP (c-di-GMP-II aptamer); higher = less ribozyme self-cleavage, higher mRNA level; settings: reporter: mCherry (pCS4076), ligand present: no
Summary of the method: (§1)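 HEK293T cells received ligand, where used, 1 h before being transfected with 4 µg per 6-well well of library plasmids encoding reporter-linked ribozyme switches. After 72 h, RNA was extracted with EDTA and sequenced. RNA level was derived from RNA reads per DNA read, normalized to a spiked-in non-cleaving sequence or the top sequences, then scaled and log-transformed. Values were ×100 then log10, the top set was 25 sequences, and the minimum was 100 DNA reads.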

[2] = variants of: B1; test: normalized RNA/DNA level with ligand (relative to sTRSVctl = 100) (log10 (% of sTRSVctl)); HEK293T; ligand: cyclic di-GMP (c-di-GMP-II aptamer); ligand concentration (+) RNA-Seq: 1 mM; higher = less ribozyme self-cleavage, higher mRNA level; settings: reporter: mCherry (pCS4076), ligand present: yes
Summary of the method: as §1

Row | Variant | normalized RNA/DNA level without ligand (log10) [1] | normalized RNA/DNA level with ligand (log10) [2]
1 | GCUGUCACCGAGAAACUGUGAAGUAUAUCUUAAACCUGGGCACUUAAAAGAUAUAUGGAGUUAGUAGUGCAACCUGCUCGGUCUGAUGAGUCCAUUACUGGACGAAACAGC [AUUACU] | 1.73 ± 0.029 | 1.86 ± 0.081
2 | GCUGUCACCGAGAAACUGUGAAGUAUAUCUUAAACCUGGGCACUUAAAAGAUAUAUGGAGUUAGUAGUGCAACCUGCUCGGUCUGAUGAGUCCCCGUUUGGACGAAACAGC [CCGUUU] | 1.53 ± 0.058 | 1.71 ± 0.14
3 | GCUGUCACCGAGAAACUGUGAAGUAUAUCUUAAACCUGGGCACUUAAAAGAUAUAUGGAGUUAGUAGUGCAACCUGCUCGGUCUGAUGAGUCCACAGGUGGACGAAACAGC [ACAGGU] | 1.42 ± 0.16 | 1.64 ± 0.07
4 | GCUGUCACCGAGAAACUGUGAAGUAUAUCUUAAACCUGGGCACUUAAAAGAUAUAUGGAGUUAGUAGUGCAACCUGCUCGGUCUGAUGAGUCCUUCCGAGGACGAAACAGC [UUCCGA] | 1.79 ± 0.045 | 1.92 ± 0.12
5 | GCUGUCACCGAGAAACUGUGAAGUAUAUCUUAAACCUGGGCACUUAAAAGAUAUAUGGAGUUAGUAGUGCAACCUGCUCGGUCUGAUGAGUCCGCUCCUGGACGAAACAGC [GCUCCU] | 1.71 ± 0.0058 | 1.85 ± 0.081
6 | GCUGUCACCGAGAAACUGUGAAGUAUAUCUUAAACCUGGGCACUUAAAAGAUAUAUGGAGUUAGUAGUGCAACCUGCUCGGUCUGAUGAGUCCCACUAGGGACGAAACAGC [CACUAG] | 1.759 ± 0.017 | 1.88 ± 0.14
7 | GCUGUCACCGAGAAACUGUGAAGUAUAUCUUAAACCUGGGCACUUAAAAGAUAUAUGGAGUUAGUAGUGCAACCUGCUCGGUCUGAUGAGUCCCGGCUCGGACGAAACAGC [CGGCUC] | 1.782 ± 0.0084 | 1.85 ± 0.085
8 | GCUGUCACCGAGAAACUGUGAAGUAUAUCUUAAACCUGGGCACUUAAAAGAUAUAUGGAGUUAGUAGUGCAACCUGCUCGGUCUGAUGAGUCCGUCAUAGGACGAAACAGC [GUCAUA] | 1.57 ± 0.025 | 1.76 ± 0.14
9 | GCUGUCACCGAGAAACUGUGAAGUAUAUCUUAAACCUGGGCACUUAAAAGAUAUAUGGAGUUAGUAGUGCAACCUGCUCGGUCUGAUGAGUCCCUGGAUGGACGAAACAGC [CUGGAU] | 1.53 ± 0.094 | 1.73 ± 0.053
10 | GCUGUCACCGAGAAACUGUGAAGUAUAUCUUAAACCUGGGCACUUAAAAGAUAUAUGGAGUUAGUAGUGCAACCUGCUCGGUCUGAUGAGUCCUCCGAUGGACGAAACAGC [UCCGAU] | 1.59 ± 0.041 | 1.79 ± 0.08
11 | GCUGUCACCGAGAAACUGUGAAGUAUAUCUUAAACCUGGGCACUUAAAAGAUAUAUGGAGUUAGUAGUGCAACCUGCUCGGUCUGAUGAGUCCAGUACAGGACGAAACAGC [AGUACA] | 1.51 ± 0.038 | 1.67 ± 0.059
12 | GCUGUCACCGAGAAACUGUGAAGUAUAUCUUAAACCUGGGCACUUAAAAGAUAUAUGGAGUUAGUAGUGCAACCUGCUCGGUCUGAUGAGUCCUGGCCAGGACGAAACAGC [UGGCCA] | 1.79 ± 0.029 | 1.86 ± 0.12
13 | GCUGUCACCGAGAAACUGUGAAGUAUAUCUUAAACCUGGGCACUUAAAAGAUAUAUGGAGUUAGUAGUGCAACCUGCUCGGUCUGAUGAGUCCUUCGAUGGACGAAACAGC [UUCGAU] | 1.69 ± 0.066 | 1.85 ± 0.16
14 | GCUGUCACCGAGAAACUGUGAAGUAUAUCUUAAACCUGGGCACUUAAAAGAUAUAUGGAGUUAGUAGUGCAACCUGCUCGGUCUGAUGAGUCCAUCUUUGGACGAAACAGC [AUCUUU] | 1.69 ± 0.046 | 1.86 ± 0.1
15 | GCUGUCACCGAGAAACUGUGAAGUAUAUCUUAAACCUGGGCACUUAAAAGAUAUAUGGAGUUAGUAGUGCAACCUGCUCGGUCUGAUGAGUCCAGUGAUGGACGAAACAGC [AGUGAU] | 1.671 ± 0.003 | 1.81 ± 0.12
16 | GCUGUCACCGAGAAACUGUGAAGUAUAUCUUAAACCUGGGCACUUAAAAGAUAUAUGGAGUUAGUAGUGCAACCUGCUCGGUCUGAUGAGUCCGGCUUAGGACGAAACAGC [GGCUUA] | 1.61 ± 0.074 | 1.79 ± 0.12
17 | GCUGUCACCGAGAAACUGUGAAGUAUAUCUUAAACCUGGGCACUUAAAAGAUAUAUGGAGUUAGUAGUGCAACCUGCUCGGUCUGAUGAGUCCAUGCAUGGACGAAACAGC [AUGCAU] | 1.62 ± 0.045 | 1.76 ± 0.12
18 | GCUGUCACCGAGAAACUGUGAAGUAUAUCUUAAACCUGGGCACUUAAAAGAUAUAUGGAGUUAGUAGUGCAACCUGCUCGGUCUGAUGAGUCCGAUCACGGACGAAACAGC [GAUCAC] | 1.727 ± 0.016 | 1.84 ± 0.085
19 | GCUGUCACCGAGAAACUGUGAAGUAUAUCUUAAACCUGGGCACUUAAAAGAUAUAUGGAGUUAGUAGUGCAACCUGCUCGGUCUGAUGAGUCCUUGGACGGACGAAACAGC [UUGGAC] | 1.665 ± 0.0078 | 1.78 ± 0.08
20 | GCUGUCACCGAGAAACUGUGAAGUAUAUCUUAAACCUGGGCACUUAAAAGAUAUAUGGAGUUAGUAGUGCAACCUGCUCGGUCUGAUGAGUCCUUUCAGGGACGAAACAGC [UUUCAG] | 1.75 ± 0.022 | 1.86 ± 0.1
21 | GCUGUCACCGAGAAACUGUGAAGUAUAUCUUAAACCUGGGCACUUAAAAGAUAUAUGGAGUUAGUAGUGCAACCUGCUCGGUCUGAUGAGUCCGCCGCCGGACGAAACAGC [GCCGCC] | 1.72 ± 0.033 | 1.82 ± 0.075
22 | GCUGUCACCGAGAAACUGUGAAGUAUAUCUUAAACCUGGGCACUUAAAAGAUAUAUGGAGUUAGUAGUGCAACCUGCUCGGUCUGAUGAGUCCAAAGCGGGACGAAACAGC [AAAGCG] | 1.689 ± 0.0061 | 1.78 ± 0.14
23 | GCUGUCACCGAGAAACUGUGAAGUAUAUCUUAAACCUGGGCACUUAAAAGAUAUAUGGAGUUAGUAGUGCAACCUGCUCGGUCUGAUGAGUCCUUCAGAGGACGAAACAGC [UUCAGA] | 1.7 ± 0.084 | 1.81 ± 0.069
24 | GCUGUCACCGAGAAACUGUGAAGUAUAUCUUAAACCUGGGCACUUAAAAGAUAUAUGGAGUUAGUAGUGCAACCUGCUCGGUCUGAUGAGUCCGCAUCAGGACGAAACAGC [GCAUCA] | 1.61 ± 0.11 | 1.77 ± 0.12
25 | GCUGUCACCGAGAAACUGUGAAGUAUAUCUUAAACCUGGGCACUUAAAAGAUAUAUGGAGUUAGUAGUGCAACCUGCUCGGUCUGAUGAGUCCAGAUAGGGACGAAACAGC [AGAUAG] | 1.53 ± 0.11 | 1.71 ± 0.086
26 | GCUGUCACCGAGAAACUGUGAAGUAUAUCUUAAACCUGGGCACUUAAAAGAUAUAUGGAGUUAGUAGUGCAACCUGCUCGGUCUGAUGAGUCCUCUAUCGGACGAAACAGC [UCUAUC] | 1.698 ± 0.013 | 1.84 ± 0.086
